Laboratory results taken from patent US20240116985A1 (published 2024).
Each block holds one binder with its values, some of them ahead of it. Starred links: 1 amine or outer side, 2 acyl side, 3 side chain; linkers in the order of their positions; H or OH if unused. Positions of bridges follow the written chain, without caps; N, C: chain ends. Non-standard residues stand in square brackets, D forms with d. Primed or numbered codes have the meaning given here. (CCpCO2H)TriAzDap = (S)-1-(1-(2-amino-2-carboxyethyl)-1H-1,2,3-triazol-4-yl)cyclopropane-1-carboxylic acid, O=C([C@H](Cn1cc(C2(C(=O)[*:3])CC2)nn1)N[*:1])[*:2]; PyrS2″ = (S)-3-amino-1-((pent-4-en-1-yloxy)carbonyl)pyrrolidine-3-carboxylic acid (stapling residue), C=CCCCOC(=O)N1CC[C@@](N[*:1])(C(=O)[*:2])C1; B5(16) = 2-amino-2-(pent-4-en-1-yl)hept-6-enoic acid = 2,2-bis(4-pentenyl)glycine (stitching residue), C=CCCCC(CCCC=C)(N[*:1])C(=O)[*:2]; B5(4) = 2,2-bis(4-pentenyl)glycine = 2-amino-2-(pent-4-en-1-yl)hept-6-enoic acid (stitching residue), C=CCCCC(CCCC=C)(N[*:1])C(=O)[*:2]; B5(5) = 2,2-bis(4-pentenyl)glycine, 2-amino-2-(pent-4-en-1-yl)hept-6-enoic acid (stitching residue), C=CCCCC(CCCC=C)(N[*:1])C(=O)[*:2]; Bta = N[C@@H](Cc1csc2ccccc12)C(=O)O; αAllylPro = C=CC[C@@]1(C(=O)O)CCCN1; tBuAla = CC(C)(C)C[C@H](N)C(=O)O; 3Thi = N[C@@H](Cc1ccsc1)C(=O)O; S8 = C=CCCCCCC[C@](C)(N)C(=O)O

Columns and labels:
[1] = target: T1, B-cat-Halo (beta-catenin HaloTag fusion expressed in HEK293 cells) (Homo sapiens (Human), UniProt P35222 1-781); assay: cell-based or functional assay
T1 sequence: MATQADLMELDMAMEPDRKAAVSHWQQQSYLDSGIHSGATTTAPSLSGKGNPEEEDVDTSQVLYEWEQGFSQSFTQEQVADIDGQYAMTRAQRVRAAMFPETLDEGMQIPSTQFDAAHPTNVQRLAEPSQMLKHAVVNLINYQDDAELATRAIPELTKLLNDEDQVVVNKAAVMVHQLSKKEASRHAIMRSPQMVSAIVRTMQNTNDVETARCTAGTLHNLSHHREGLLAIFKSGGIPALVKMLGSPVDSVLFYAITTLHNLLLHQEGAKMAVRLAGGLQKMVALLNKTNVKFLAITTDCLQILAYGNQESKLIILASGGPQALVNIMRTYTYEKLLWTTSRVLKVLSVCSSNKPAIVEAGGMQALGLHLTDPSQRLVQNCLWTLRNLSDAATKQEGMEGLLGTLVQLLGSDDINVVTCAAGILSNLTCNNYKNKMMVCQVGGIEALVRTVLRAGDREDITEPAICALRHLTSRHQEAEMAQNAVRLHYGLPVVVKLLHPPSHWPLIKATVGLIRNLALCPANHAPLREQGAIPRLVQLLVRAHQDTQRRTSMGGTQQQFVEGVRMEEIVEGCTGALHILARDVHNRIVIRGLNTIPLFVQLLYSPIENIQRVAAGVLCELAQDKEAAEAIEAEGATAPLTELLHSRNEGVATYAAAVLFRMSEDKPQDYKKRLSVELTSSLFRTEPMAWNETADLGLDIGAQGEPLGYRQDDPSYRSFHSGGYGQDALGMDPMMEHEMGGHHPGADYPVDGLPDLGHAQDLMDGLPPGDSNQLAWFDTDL

[2] = target: T2, beta-catenin in DLD1 TCF/LEF luciferase reporter cells (UniProt P35222 1-781); assay: cell-based or functional assay
T2 sequence (looked up): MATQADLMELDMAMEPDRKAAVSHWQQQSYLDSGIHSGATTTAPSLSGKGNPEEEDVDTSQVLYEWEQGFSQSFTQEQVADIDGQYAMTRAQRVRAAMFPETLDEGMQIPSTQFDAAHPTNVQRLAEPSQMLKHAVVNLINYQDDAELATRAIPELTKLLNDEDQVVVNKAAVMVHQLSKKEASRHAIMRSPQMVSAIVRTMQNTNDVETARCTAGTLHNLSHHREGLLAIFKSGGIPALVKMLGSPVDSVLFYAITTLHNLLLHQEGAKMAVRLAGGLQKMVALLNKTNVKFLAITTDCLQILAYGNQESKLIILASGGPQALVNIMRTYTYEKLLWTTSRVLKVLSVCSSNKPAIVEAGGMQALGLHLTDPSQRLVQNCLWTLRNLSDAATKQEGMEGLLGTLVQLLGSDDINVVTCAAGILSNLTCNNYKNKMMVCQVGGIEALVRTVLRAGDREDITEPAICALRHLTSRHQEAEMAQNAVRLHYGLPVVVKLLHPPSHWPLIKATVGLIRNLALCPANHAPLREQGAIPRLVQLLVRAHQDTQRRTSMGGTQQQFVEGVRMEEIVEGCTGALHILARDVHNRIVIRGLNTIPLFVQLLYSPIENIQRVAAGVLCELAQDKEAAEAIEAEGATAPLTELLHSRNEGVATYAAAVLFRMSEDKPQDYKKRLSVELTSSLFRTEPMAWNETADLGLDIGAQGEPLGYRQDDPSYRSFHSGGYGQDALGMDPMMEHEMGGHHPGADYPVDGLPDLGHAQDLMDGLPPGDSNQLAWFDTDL

Bcat-Halo [3] = target: T3, Bcat-Halo (UniProt P35222 1-781); assay: NanoBRET in HEK293 cells, Bcat-Halo/TCF4-Luc (competitor TCF4-Luc); absolute IC50
T3 construct: Construct transfected into HEK293 cells for NanoBRET; not shown: HaloTag fusion partner
T3 sequence (looked up): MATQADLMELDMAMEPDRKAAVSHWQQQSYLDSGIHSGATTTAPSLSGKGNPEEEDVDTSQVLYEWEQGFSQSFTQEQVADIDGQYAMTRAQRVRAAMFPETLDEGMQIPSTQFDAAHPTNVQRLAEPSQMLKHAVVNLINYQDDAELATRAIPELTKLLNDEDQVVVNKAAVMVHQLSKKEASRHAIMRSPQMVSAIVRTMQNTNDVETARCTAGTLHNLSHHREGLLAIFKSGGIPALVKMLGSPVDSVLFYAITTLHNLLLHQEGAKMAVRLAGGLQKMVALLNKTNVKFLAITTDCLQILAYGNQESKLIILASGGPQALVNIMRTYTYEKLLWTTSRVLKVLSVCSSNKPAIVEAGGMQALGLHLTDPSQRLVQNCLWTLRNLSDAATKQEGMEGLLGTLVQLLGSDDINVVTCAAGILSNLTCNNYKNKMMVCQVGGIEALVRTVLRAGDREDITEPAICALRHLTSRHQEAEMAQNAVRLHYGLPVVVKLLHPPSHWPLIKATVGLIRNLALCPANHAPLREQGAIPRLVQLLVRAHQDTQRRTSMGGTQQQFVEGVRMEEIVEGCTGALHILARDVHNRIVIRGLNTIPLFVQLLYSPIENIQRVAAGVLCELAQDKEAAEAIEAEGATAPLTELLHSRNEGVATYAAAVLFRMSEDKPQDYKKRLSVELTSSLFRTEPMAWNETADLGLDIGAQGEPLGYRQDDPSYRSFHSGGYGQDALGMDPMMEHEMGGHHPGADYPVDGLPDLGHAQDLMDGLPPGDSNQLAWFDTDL

[4] = target: T4, full-length beta-Catenin (Uniprot ID P35222) (Homo sapiens (Human), UniProt P35222 2-781); assay: fluorescence polarization competition; full-length beta-catenin, competitor 5FAM-TCF4(10-53) probe
T4 construct: Also used here for the endogenous beta-catenin of the DLD1 TCF reporter cells; also called bCat; B-Catenin
T4 sequence: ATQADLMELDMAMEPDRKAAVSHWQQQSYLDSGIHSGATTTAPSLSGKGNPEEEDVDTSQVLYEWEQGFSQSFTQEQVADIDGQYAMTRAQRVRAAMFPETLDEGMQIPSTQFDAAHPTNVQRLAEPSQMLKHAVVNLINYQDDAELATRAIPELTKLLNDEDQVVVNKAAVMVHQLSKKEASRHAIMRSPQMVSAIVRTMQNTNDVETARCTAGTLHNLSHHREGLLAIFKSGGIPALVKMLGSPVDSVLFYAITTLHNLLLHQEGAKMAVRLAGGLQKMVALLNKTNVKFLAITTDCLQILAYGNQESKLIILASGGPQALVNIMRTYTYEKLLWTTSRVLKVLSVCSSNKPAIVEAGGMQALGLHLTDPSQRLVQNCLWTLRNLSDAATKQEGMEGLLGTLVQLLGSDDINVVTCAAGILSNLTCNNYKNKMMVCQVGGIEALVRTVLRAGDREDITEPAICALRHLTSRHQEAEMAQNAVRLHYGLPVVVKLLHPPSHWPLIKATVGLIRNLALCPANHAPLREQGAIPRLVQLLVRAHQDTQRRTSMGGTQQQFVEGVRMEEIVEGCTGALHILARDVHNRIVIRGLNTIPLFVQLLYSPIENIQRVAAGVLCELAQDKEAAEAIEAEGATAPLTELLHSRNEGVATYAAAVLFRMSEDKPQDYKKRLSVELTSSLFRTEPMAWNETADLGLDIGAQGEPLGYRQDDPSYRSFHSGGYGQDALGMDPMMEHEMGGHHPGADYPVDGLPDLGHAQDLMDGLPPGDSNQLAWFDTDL
Procedure, shortened: (§1)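 Plate incubated 60 minutes at 20° C. protected from light before reading. Concentrations given are final.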

Bcat-Halo [5] = target: T5, Bcat-Halo (UniProt P35222 1-781); assay: NanoBRET Abs IC50 in HEK293 cells; Bcat-Halo, competitor TCF4-Luc
T5 construct: also called beta-catenin HaloTag fusion; not shown: HaloTag
T5 sequence (looked up): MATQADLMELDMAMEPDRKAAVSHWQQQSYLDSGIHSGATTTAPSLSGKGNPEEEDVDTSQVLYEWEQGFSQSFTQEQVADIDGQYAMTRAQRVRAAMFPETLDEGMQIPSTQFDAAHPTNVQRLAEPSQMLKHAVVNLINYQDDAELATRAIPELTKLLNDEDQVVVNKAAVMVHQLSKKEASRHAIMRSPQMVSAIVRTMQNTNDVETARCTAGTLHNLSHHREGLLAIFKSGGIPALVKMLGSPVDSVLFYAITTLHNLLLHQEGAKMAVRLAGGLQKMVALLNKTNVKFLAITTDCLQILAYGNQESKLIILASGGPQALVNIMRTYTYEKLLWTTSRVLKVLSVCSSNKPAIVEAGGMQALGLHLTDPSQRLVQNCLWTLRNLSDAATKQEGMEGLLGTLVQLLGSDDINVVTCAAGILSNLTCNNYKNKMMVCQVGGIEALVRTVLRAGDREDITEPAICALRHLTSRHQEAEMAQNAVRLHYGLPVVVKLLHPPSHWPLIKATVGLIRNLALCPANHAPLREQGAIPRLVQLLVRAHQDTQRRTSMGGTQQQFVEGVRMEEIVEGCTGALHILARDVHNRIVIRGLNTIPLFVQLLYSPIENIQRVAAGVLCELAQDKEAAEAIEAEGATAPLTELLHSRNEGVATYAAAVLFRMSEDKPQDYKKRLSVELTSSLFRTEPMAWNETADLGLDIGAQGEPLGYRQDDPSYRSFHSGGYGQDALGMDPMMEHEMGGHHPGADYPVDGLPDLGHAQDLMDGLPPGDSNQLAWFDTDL

[6] = target: T6, full-length beta-Catenin (Uniprot ID P35222) (Homo sapiens (Human), UniProt P35222 1-781); assay: fluorescence polarization competition; full-length beta-catenin, competitor 5FAM-TCF4(10-53) probe
T6 construct: also called bCat; B-Catenin
T6 sequence: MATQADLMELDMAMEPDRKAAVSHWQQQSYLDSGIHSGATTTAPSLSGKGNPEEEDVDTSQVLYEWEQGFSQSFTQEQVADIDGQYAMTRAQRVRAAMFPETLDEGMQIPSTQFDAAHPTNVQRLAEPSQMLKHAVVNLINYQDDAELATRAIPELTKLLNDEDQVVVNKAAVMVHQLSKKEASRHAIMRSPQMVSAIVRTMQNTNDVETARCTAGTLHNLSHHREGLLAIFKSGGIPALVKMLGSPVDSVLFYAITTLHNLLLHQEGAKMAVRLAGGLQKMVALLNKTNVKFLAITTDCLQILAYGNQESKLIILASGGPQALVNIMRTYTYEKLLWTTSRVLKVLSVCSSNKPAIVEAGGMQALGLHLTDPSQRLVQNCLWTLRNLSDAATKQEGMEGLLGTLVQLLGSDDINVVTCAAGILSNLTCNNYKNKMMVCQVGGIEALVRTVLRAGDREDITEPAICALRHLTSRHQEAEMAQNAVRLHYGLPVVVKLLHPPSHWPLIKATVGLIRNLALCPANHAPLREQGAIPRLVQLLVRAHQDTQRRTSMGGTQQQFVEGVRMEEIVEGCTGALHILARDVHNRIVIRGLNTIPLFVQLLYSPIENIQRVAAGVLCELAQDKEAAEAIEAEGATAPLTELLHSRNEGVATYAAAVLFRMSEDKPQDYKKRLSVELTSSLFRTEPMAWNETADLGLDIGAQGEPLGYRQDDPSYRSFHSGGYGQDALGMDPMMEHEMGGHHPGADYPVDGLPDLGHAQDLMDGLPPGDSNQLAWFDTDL
Procedure, shortened: as §1

NanoBRET Abs IC50 [1]: 17.1 µM
DLD1 4% Abs IC50 [2]: 9.5 µM
B1: I-2445 (peptide)
peptide: Ac-[αAllylPro]D[tBuAla][B5(5)]D[(CCpCO2H)TriAzDap]AAFL[PyrS2″][3Thi][Bta]Q-NH2
modifications: staple 1-4, 4-11; not fully specified; printed as Ac-PL3-Asp-Npg-B5-Asp-[CCpCO2H]TriAzDap-Ala-Ala-Phe-Leu-PyrS2-3Thi-BztA-Gln-NH2

IC50 (Bcat-Halo [3]): 10 µM
EC50 [4]: 0.014 µM
B2: I-753 (peptide)
peptide: Ac-[αAllylPro]DL[B5(4)]DEAAFN[S8]F[Bta]N-NH2
modifications: staple 1-4, 4-11; also: olefin E/Z not assigned, later-eluting staple isomer
notes: Stapled peptide composition

Continued, binder first:

B3: I-654 (peptide)
peptide: Ac-[αAllylPro]DI[B5(16)]DEQAFQ[S8]F[Bta]Q-NH2
modifications: staple 1-4, 4-11
notes: Stapled peptide
IC50 (Bcat-Halo [5]): 15 µM

B4: I-662 (peptide)
peptide: XDIXDEASFQXFXQ
modifications: not fully specified; Ac-PL3-Asp-Ile-B5-Asp-Glu-Ala-Ser-Phe-Gln-S8-Phe-BztA-Gln-NH2; N-terminal acetyl, C-terminal amide; PL3(1), B5(4), S8(11) stapled by olefin metathesis (1-4 and 4-11); BztA at 13
notes: Stapled peptide
IC50 [6]: 0.026 µM
IC50 (Bcat-Halo [5]): 16.1 µM
